Biological target: T1, hResistin (human, UniProt Q9HD89 19-108)
T1 construct: Immobilised on the SPR chip; also called human resistin; resistin protein
T1 sequence (looked up): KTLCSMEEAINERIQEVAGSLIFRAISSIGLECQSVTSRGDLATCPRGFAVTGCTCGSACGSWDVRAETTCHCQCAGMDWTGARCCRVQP
Experiment: SPR (Reichert SR7500DC), hResistin immobilised on CMDH chip, peptide injected in PBS
Experimental: To measure the direct binding of hResistin and VS_peptide (SEQ ID NO: 2), SPR analysis was performed using Reichert SR7500DC system. hResistin (1.8 ug) and hPCSK9 (1.6 ug) proteins were immobilized on the carboxymethyl dextran hydrogel surface sensor chip (CMDH chip, Cat#: 13206066) by using a 10 mM sodium acetate immobilization buffer (pH 5.5 or pH 4.5). VS_peptide (SEQ ID NO: 2) diluted in PBS buffer (pH 7.4) in a dose-dependent manner was injected into the sensor chip (flow rate: 30 μl/min, association time: 3 min) to measure the response unit (RU) for binding strength. After the measurement of RU values for binding strength, PBS buffer (pH 7.4) was allowed to flow over the sensor chip at a rate of 30 μl/min for 3 minutes to measure dissociation RU values of VS_peptide (SEQ ID NO: 2) from hResistin immobilized on the chip. The dissociation equilibrium constant (KD) of VS_peptide (SEQ ID NO: 2) for hResistin was derived using Scrubber2 software (KD=Kd/Kₐ, Kₐ=association rate, Kd=dissociation rate).

Kd: 3.7 mM
B1: VS_peptide (SEQ ID NO: 2) (peptide)
peptide: PPPPGPPPPPVSTSSGSDES
notes: Synthesised by Peptron, Korea; also called peptide VS; Existing peptide

Reference: US20200157147A1 (SEOUL NATIONAL UNIVERSITY HOSPITAL, published 2020)
